T1: CD27 protein (His-tagged, Sino Biological Inc. 10039-H08B1) (human, UniProt P26842 20-192)
T1 construct: bought; coated onto ELISA plates; also called human CD27; recombinant protein; not shown: His tag
T1 sequence (looked up): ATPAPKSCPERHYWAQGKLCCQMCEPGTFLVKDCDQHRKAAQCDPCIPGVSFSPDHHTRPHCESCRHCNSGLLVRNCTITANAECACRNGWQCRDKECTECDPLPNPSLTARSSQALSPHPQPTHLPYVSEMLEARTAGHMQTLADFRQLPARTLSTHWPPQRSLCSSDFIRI

T2: CD27 expressed on the cell surface (HT1080_CD27 cells) (human, UniProt P26842 20-260)
T2 sequence (looked up): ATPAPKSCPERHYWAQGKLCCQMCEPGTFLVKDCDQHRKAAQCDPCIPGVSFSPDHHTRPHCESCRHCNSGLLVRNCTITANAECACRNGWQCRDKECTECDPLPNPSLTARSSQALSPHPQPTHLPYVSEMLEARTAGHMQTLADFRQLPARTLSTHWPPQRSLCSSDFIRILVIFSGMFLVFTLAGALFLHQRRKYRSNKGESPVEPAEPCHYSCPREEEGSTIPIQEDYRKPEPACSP

B1: P018.S.03.A.E04 (antibody, V domains shown)
VH: QEQLKESGGGLVTPGGTLTLTCTVSGIDLSSYAISWVRQAPGKGLEWIGYIYVGSTTTWYASWVKGRSTISKTSSTTVDLKMTSLTTEDTATYFCARAYDSGYIGNSFYIFHPWGPGTLVTVSS
VL: DIVMTQTPASVSATVGGTVTIKCQASQTISSRLAWYQQKPGQPPKLLIYSASTLASGVSSRFKGSGSGTEFTLTISDLESADGATYYCAGYGGLGITAFGGGTEVVVK
notes: V regions on human Ig constant parts; also called AB27_52
B2: P018.S.04.A.A05 (antibody, V domains shown)
VH: QSLEESGGRLVTPGTPLTLTCTASGFTISSYEMGWVRQAPGEGLEYIGWIASGGSTFYASWAKGRFTISRTSTTVDLTITDLRPSDTGTYFCARGYVEFKLWGPGTLVTVSS
VL: DIVMTQTPASVSESVGGTVTIKCQASQSIGSYLSWYQQKPGQPPKVLIYRASTLESGVPSRFEGSGSGTQFTLTISDLESADAATYYCQGYHSTSGYVAFGGGTELVVK
notes: V regions on human Ig constant parts; also called AB27_65
B3: P018.S.09.A.C03 (antibody, V domains shown)
VH: QSVEESGGRLVTPGTPLTLTCTVSGFSLSSYGMIWVRQAPGKGLEWIGWISSNDNKYYARWAKGRFTISKTSTTVDLKMTSLTTEDTATYFCVRNGVYNTGNYFDLWGQGTLVTVSS
VL: AQVLTQTPSSVSAAVGGTVTINCQASQSLYNNKNLAWYQQKPGQPPKFLIYTASSLASGVSSRFKGSGSGTQFTLTISDVQSDDAATYYCQGEFDCDSDDCFAFGGGTEVVVK
notes: V regions on human Ig constant parts; also called AB27_148
B4: P018.S.09.A.D05 (antibody, V domains shown)
VH: QSLEESGGRLVTPGGSLTLTCTVSGIDLSSYAMDWVRQAPGKGLEWIGVIGAGGSTYYASWANGRFTISKTSTTVDLKISSPTTEDTATYFCARDIGGDYSSRYYFSLWGPGTLVTVSS
VL: DIVMTQTPASVEAAVGGTVTIKCQASQSTSTALAWYQQKPGQRPKLLIYDSSKLASGVPSRFSGSGSGTEFTLTISGVQSDDAASYYCQQGYNINNVAFGGGTEVVVK
notes: V regions on human Ig constant parts; also called AB27_152
B5: P018.S.01.A.C06 (antibody, V domains shown)
VH: QSVEESGGRLVTPGTPLTLTCTVSGIDLNNYVMGWVRQAPGKGLEWIGIINTAGSTYYANWAKGRFTISKTSTTVDLKITSPTTEDTATYFCARDSSYYIGYYFNLWGPGTLVTVSS
VL: QIVMTQTPASVEVAVGGTVTIKCQASQSIGSNLAWYQQKPGQPPKLLIYDASDLESGVPSRFKGSGSGAQFTLTISDLESADAATYYCQQGYSATTNVDNAFGGGTEVVVK
notes: V regions on human Ig constant parts; also called AB27_10
B6: P018.S.05.A.F02 (antibody, V domains shown)
VH: QSVEESGGRLVTPGTPLTLTCTVSGFSLNNYGITWVRQAPGKGLEYIGYINYGGIAYYASWVNGRFTISKTSTTVDLKMTSLTAADTATYFCARGYGYYSAGNLWGQGTLVTVSS
VL: AQVLTQTPSPVSAAVGGTVTINCQASQSVYDNNYLSWYQQKPGQPPKRLIYDASSLASGVPSRFSGSGSGTQFTLTISGVQSDDAATYYCAGEYSCLSDDCIAFGGGTEVVVK
notes: V regions on human Ig constant parts; also called AB27_91
B7: P018.S.07.A.C06 (antibody, V domains shown)
VH: QSVEESGGRLVTPGTPLTLTCTVSGFSLNHYHMCWVRQAPGKGLEYIGRIDNSGYIVYASWAKGRFTISKTSTTVDLKITSPTTADTATYFCGKYYSGGSYDLWGQGTLVTVSS
VL: AQVLTQTASSVSAAVGGTVTISCQSSQSVWNNNWLAWYQQKPGQPPKLLIYETSKLASGVPSRFKGSGSGTQFTLTISGVQSDDAATYYCQGEFSCSSDDCNAFGGGTEVVVK
notes: V regions on human Ig constant parts; also called AB27_121

target: T1, CD27 protein (His-tagged, Sino …); test: ELISA on coated His-tagged CD27
Note: test concentration or dose not given here.

Row | ELISA [abs. corr.] | Binder
1 | 3.29 abs. corr. | B1
2 | 3.29 abs. corr. | B2
3 | 3.53 abs. corr. | B3
4 | 3.28 abs. corr. | B4
5 | 3.3 abs. corr. | B5
6 | 3.29 abs. corr. | B6
7 | 3.29 abs. corr. | B7

target: T2, CD27 expressed on the cell surface …; test: cell-based or functional assay

Row | IL-8, cross-linked by F(ab')2 fragment [abs. corr.] | IL-8 [abs. corr.] | Binder
8 | 1.19 abs. corr. | 0.2 abs. corr. | B1
9 | 2.24 abs. corr. | 1.67 abs. corr. | B2
10 | 2.25 abs. corr. | 0.464 abs. corr. | B3
11 | 2.11 abs. corr. | 0.187 abs. corr. | B4
12 | 1.79 abs. corr. | 0.325 abs. corr. | B5
13 | 1.91 abs. corr. | 0.526 abs. corr. | B6
14 | 1.04 abs. corr. | 0.408 abs. corr. | B7

target: T2, CD27 expressed on the cell surface …; test: cellular binding assay, HT1080_CD27 cells

Row | Cellular binding assay [RFU] | Binder
15 | 356 RFU | B1
16 | 206 RFU | B2
17 | 319 RFU | B3
18 | 400 RFU | B4
19 | 369 RFU | B5
20 | 472 RFU | B6
21 | 336 RFU | B7

From patent publication US20210253725A1 (BIONTECH, published 2021)
